Here are results for 13 molecules from PMC5556061 (Scientific Reports, 2017).

The subject of experiment [1] is CAS SH3 Y12E. The experiment can be described thus: Phage ELISA with CAS SH3 variants. It is filed as binding, mouse. The settings on record: immobilized 5 µg of CAS SH3 variant per well, three independent experiments. The protocol:
The relative binding affinities of individual phage clones to GST-CAS SH3 were assessed by ELISA according to the manufacturer’s protocol (Ph.D.™ −12 Phage Display Peptide Library Kit, New England Biolabs). Briefly, a dilution series of phage stocks was prepared in TBS with 0.5% Tween 20 (TBST, 10^15−2 × 10^6 pfu/ml), and phages were scored for their ability to bind immobilized GST-CAS SH3 domain (100 µl of 50 µg/ml per well) in 96-well plate. Bound phages were detected with anti-M13 antibody conjugated to HRP and quantified in a colorimetric assay (ABTS at 415 nm, Invitrogen) using Varioskan Flash (Thermo Scientific). Relative binding affinities (the affinity of the phage clone with the highest affinity was arbitrarily set to 1) were evaluated based on the number of phages required to bind the immobilized GST-fused CAS SH3 domain at 50% saturation. Curves were fitted with the standard sigmoidal function in Sigmaplot. The clones with highest affinities were selected for further analyses (e.g., binding to immobilized 5 µg of CAS SH3 variants per well).

Experiment [2] deals with GST-fused CAS SH3 domain. The experiment can be described thus: Competitive displacement phage ELISA (EC50). It is filed as binding, mouse. As for the experimental part: The EC50 for phage clone 1 ([…], highest affinity) was determined using competitive displacement of the phage bound (5.5·10^10 pfu) to immobilized GST-fused CAS SH3 domain (100 µl of 20 µg/ml per well to yield the best specificity/sensitivity ratio) by serial additions of free GST-fused CAS SH3 domain in TBST (1 µg/ml–800 µg/ml) as previously described. The amount of bound phages was assessed with anti-M13 antibody conjugated to HRP and quantified in a colorimetric assay. Displacement curves were fitted to standard sigmoidal function and EC50 was calculated in Sigmaplot version 11 software using a four-parameter logistic equation. Statistical significance (*p < 0.05, **p < 0.01, ***p < 0.001) was determined on log-transformed data by one-way ANOVA followed by Tukey’s post-hoc test.

The test system of experiment [3] is Src kinase. Kind of experiment: Co-immunoprecipitation of FAK and Vinculin with CAS after Src inhibition. It is filed as cell-based, mouse. The settings on record: MEFs SrcF treated with 5 µM Saracatinib for 3 h, Vinculin immunoblot. The protocol: Immunoprecipitations from lysates of MEFs or MEFs transformed with SrcF were performed similarly as described above. To immunoprecipitate CAS proteins, protein-A sepharose (GE-Healthcare) and anti-CAS antibody (BD Transduction Laboratories) were used. […] After transferring proteins onto nitrocellulose membrane and blocking, the membranes were incubated with anti CAS, Src, FAK, Vinculin, CAS Tyr12, CAS pTyr165, Src pTyr418 or actin antibody.
On the technique in general: In western blotting, separated proteins are transferred to a membrane and probed.

The target of experiment [4] is T1, CAS SH3 domain (GST tag removed, for NMR) (mouse, UniProt Q61140 3-65).
T1 construct: Crk-associated substrate (CAS), mouse, SH3 domain; Two additional residues remained at the N-terminus after thrombin cleavage; In the two chimeras this domain carried, on the same chain, the spacer SGGSGSG and the peptide m17 or m18 at its C-terminus; also called free CAS SH3 domain; source: E. coli BL21 (DE3), 15N/13C-labelled, purified (glutathione agarose, thrombin cleavage, size exclusion); …
T1 sequence (looked up): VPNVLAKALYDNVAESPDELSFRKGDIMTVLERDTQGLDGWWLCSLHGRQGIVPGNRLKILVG
The experiment can be described thus: NMR solution structure; chimeras: peptide fused through a Gly/Ser-rich linker to the C-terminus of the CAS SH3 domain; 450 µM; 25 °C; 25 mM sodium phosphate pH 7.5, 100 mM NaCl, 1 mM TCEP. The settings on record: both partners purified.

In experiment [5] the target is T2, GST-fused CAS SH3 domain Y12F (mouse, UniProt Q61140 3-65, Y12F).
T2 construct: Crk-associated substrate (CAS), mouse, SH3 domain with Y12F; also called CAS SH3 Y12F mutant; source: E. coli BL21 (DE3), pGEX-2TK, purified (glutathione agarose); not shown: GST, N-terminal, kept
T2 sequence (looked up): T1 sequence (looked up) with Y10F
Kind of experiment: ELISA; phage ELISA: GST-CAS SH3 domain or its variants immobilised in 96-well plate (100 µl of 50 µg/ml; 5 µg per well), dilution series of phage stocks in TBS with 0.5% Tween 20, anti-M13-HRP; relative affinities from phage number at 50% saturation. The settings on record: one partner purified. On the technique in general: An ELISA detects its analyte on a solid surface through an enzyme-linked reagent.

The target of experiment [6] is T3, CAS SH3 (as used for ITC) (mouse, UniProt Q61140 3-65).
T3 construct: Crk-associated substrate (CAS), mouse, SH3 domain; probably the same protein as m2; source: E. coli BL21 (DE3), purified
T3 sequence (looked up): T1 sequence (looked up)
The experiment can be described thus: ITC; 660 µM peptide injected into 60 µM CAS SH3; 25 °C; PBS pH 7.5, 0.05% 2-mercaptoethanol. The settings on record: both partners purified. A general note: In ITC the heat of successive injections is recorded.

Experiment [7] addresses T4, phage-displayed peptide clone 1 (FHAPPSKPPLPK).
T4 construct: 12-residue peptide selected from a degenerate library; also called phage clone 1; source: M13 phage stock (Ph.D.-12 Phage Display Peptide Library, New England Biolabs), selected by panning
T4 peptide: FHAPPSKPPLPK
The experiment can be described thus: ELISA; competitive displacement of phage clone 1 (5.5·10^10 pfu) bound to immobilised GST-CAS SH3 (100 µl of 20 µg/ml per well) by free GST-CAS SH3 in TBST (1-800 µg/ml); anti-M13-HRP. The settings on record: one partner purified.

Where a chain is given by its changes, count along the chain named.

For the molecule TMTPPPKPPRLI [clone 10], in experiment [1], the “effect of Y12E mutation on ligand binding” value is listed as “complete disruption of ligand binding”.
In the case of FHAPPSKPPLPK [clone 1], the “fold higher affinity than reported for CAS SH3 with FAK-derived peptide” value in experiment [2] (EC50 of clone 1 compared with previously reported value) is on record as approximately 6 fold. Moreover, in experiment [2] (displacement of bound phage (5.5·10^10 pfu) from immobilized GST-CAS SH3 (100 µl of 20 µg/ml per well) by free GST-fused CAS SH3 (1-800 µg/ml) in TBST, anti-M13-HRP, colorimetric, seven independent experiments, read-out: EC50 for clone 1 binding), the EC50 was determined as 0.363 µM.
Take AHTPPPKPTRPP [clone 16]: the “effect of Y12E mutation on ligand binding” value in experiment [1] was “complete disruption of ligand binding”.
In the case of `CN1CCN(CCOc2cc(OC3CCOCC3)c3c(Nc4c(Cl)ccc5c4OCO5)ncnc3c2)CC1` [Saracatinib], in experiment [3], the “binding of CAS to Vinculin” value is reported as “restored the binding of CAS to Vinculin to a similar level as in MEFs”.

B1: PTP-PEST-derived peptide, residues 327-343 (peptide part of the CAS-PTP-PEST chimera) (peptide, UniProt P35831 327-343, looked up)
peptide: EKQDSPPPKPPRTRSCL
notes: PTP-PEST, mouse, residues 327-343; Stood on one chain with the CAS SH3 domain: SH3 domain, spacer SGGSGSG, peptide; also called PTP-PEST peptide; PTP-PEST extended peptide; source: E. coli BL21 (DE3), as the C-terminal part of the CAS SH3 chimera, purified
With B1, the binding result in experiment [4] was “binds”.

B2: phage-displayed peptide clone 10 (TMTPPPKPPRLI) (peptide)
peptide: TMTPPPKPPRLI
notes: 12-residue peptide selected from a degenerate library; also called phage clone 10; source: M13 phage stock (Ph.D.-12 Phage Display Peptide Library, New England Biolabs), selected by panning
With B2, the “fold decrease in affinity against CAS WT” value in experiment [5] came out at 2 fold.

B3: phage-displayed peptide clone 16 (AHTPPPKPTRPP) (peptide)
peptide: AHTPPPKPTRPP
notes: 12-residue peptide selected from a degenerate library; also called phage clone 16; source: M13 phage stock (Ph.D.-12 Phage Display Peptide Library, New England Biolabs), selected by panning
For B3, the “fold decrease in affinity against CAS WT” value in experiment [5] stood at 37 fold.
Regarding PPSKPPRP (source: synthetic peptide) [synthetic octapeptide PPSKPPRP], in experiment [6], the Kd was found to be 15.3 µM and the “stoichiometry N” value was determined as 1.
Take PPSKPPLP (source: synthetic peptide) [synthetic octapeptide PPSKPPLP]: in experiment [6], the Kd was determined as 46.6 µM and the “stoichiometry N” value amounted to 1.
In the case of PPPKPPRL (source: synthetic peptide) [synthetic octapeptide PPPKPPRL], in experiment [6], the Kd was 5.29 µM and the “stoichiometry N” value was 1.

B4: synthetic octapeptide APPKPPLP (binding site of CAS on Vinculin) (peptide)
peptide: APPKPPLP
notes: also called Vinculin core peptide (859-866); source: synthetic peptide
Take B4: in experiment [6], the dissociation constant (Kd) worked out at 15.7 µM and the “stoichiometry N” value is 1.

B5: Vinculin-derived peptide, residues 854-870 (peptide part of the CAS-Vinculin chimera) (peptide, UniProt Q64727 854-870, looked up)
peptide: LTDELAPPKPPLPEGEV
notes: Vinculin, mouse, residues 854-870; Stood on one chain with the CAS SH3 domain: SH3 domain, spacer SGGSGSG, peptide; also called Vinculin peptide; Vinculin extended peptide; source: E. coli BL21 (DE3), as the C-terminal part of the CAS SH3 chimera, purified
For the molecule B5, in experiment [4], the binding result was “binds”.

B6: GST-fused CAS SH3 domain (domain or fragment, mouse, UniProt Q61140 3-65, looked up)
chain: T1 sequence (looked up)
notes: Crk-associated substrate (CAS), mouse, SH3 domain; also called GST-CAS SH3; GST-SH3; source: E. coli BL21 (DE3), pGEX-2TK, purified (glutathione agarose); not shown: GST, N-terminal, kept
In experiment [7], B6 had an EC50 of 0.363 µM.

In general, EC50 refers to the concentration that produces a half-maximal response. One may read the Kd as the concentration at which binding is half-saturated. A higher Kd goes with weaker binding. A word on the stoichiometry N: it is the number of molecules, sites or subunits per partner or assembly.
